# Legend:
# [1] = target: T1, soluble extracellular domain of human TM (human, UniProt P07204 19-515); assay: pull-down; 100 nM His-tagged TM extracellular domain with 5 nM thrombin and 0.25, 0.5 or 1.0 uM native Ang1, Ang2 or Ang4 (control), 60 minutes on ice, 0.15 M NaCl, 20 mM Tris pH 7.5, 0.1% Triton X-100, 2 mM CaCl2, 1 mg/ml BSA; TM collected on Ni-NTA beads, western blot; details: both partners purified
# T1 construct: Thrombomodulin, human, soluble extracellular domain; also called soluble TM; source: bought: R&D Systems
# [2] = target: T2, Thrombomodulin (TM) expressed on COS cells (human, UniProt P07204 19-575); assay: cell-surface binding assay (alkaline phosphatase-conjugated anti-human Fc, OD405); COS cells transfected with TM in 48-well plates, varying concentrations of FD-Fc in PBS/10% calf serum, 30 minutes at room temperature; specific binding = TM-transfected minus empty vector; apparent affinities; details: one partner purified
# T2 construct: Thrombomodulin; cDNA isolated from expression libraries of HUVECs and EA.hy926 cells; Also used as the target of the functional rows on HUVECs (endogenous TM there); source: COS cells, transfected, on cells
# T2 sequence (P07204 19-575): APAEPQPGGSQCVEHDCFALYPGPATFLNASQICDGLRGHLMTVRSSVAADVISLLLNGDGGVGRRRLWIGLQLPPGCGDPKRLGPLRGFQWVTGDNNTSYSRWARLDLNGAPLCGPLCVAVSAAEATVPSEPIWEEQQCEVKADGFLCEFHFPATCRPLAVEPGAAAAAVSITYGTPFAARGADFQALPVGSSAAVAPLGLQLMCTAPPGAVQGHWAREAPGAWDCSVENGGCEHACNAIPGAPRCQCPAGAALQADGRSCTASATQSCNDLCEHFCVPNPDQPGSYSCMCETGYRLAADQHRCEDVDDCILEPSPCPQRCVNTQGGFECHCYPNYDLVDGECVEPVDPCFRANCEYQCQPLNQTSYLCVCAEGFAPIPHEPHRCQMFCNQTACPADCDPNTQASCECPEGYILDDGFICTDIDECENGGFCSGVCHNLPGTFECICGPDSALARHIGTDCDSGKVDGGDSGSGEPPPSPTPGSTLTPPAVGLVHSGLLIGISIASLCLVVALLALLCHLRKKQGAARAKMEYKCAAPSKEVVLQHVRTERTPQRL
# T1 sequence (P07204 19-515): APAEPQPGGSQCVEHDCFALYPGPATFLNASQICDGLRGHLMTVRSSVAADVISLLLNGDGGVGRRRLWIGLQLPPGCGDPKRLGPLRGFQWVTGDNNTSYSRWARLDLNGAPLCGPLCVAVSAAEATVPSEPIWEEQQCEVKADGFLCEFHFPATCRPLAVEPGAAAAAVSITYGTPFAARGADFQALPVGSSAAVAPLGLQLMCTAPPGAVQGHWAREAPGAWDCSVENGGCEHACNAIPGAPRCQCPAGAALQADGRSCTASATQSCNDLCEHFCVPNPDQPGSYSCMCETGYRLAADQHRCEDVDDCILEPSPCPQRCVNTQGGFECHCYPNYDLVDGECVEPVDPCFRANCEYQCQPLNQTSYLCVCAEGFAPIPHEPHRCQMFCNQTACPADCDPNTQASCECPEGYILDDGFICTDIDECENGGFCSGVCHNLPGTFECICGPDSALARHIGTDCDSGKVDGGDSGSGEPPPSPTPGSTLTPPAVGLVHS
Binder,Kd [2] [nM],further results
"native human Ang2 (ligand, UniProt O15123-3 19-495, looked up, Angiopoietin-2, human, 'native' as against the chimeric FD forms; also called Angiopoietin-2; source: bought: R&D Systems) YNNFRKSMDSIGKKQYQVQHGSCSYTFLLPEMDNCRSSSSPYVSNAVQRDAPLEYDDSVQRLQVLENIMENNTQWLMKLENYIQDNMKKEMVEIQQNAVQNQTAVMIEIGTNLLNQTAEQTRKLTDVEAQVLNQTTRLELQLLEHSLSTNKLEKQILDQTSEINKLQDKNSFLEKKVLAMEDKHIIQLQSIKEEKDQLQVLVSKQNSIIEELEKKIVTATVNNSVLQKQQHDLMETVNNLLTMMSTSNSKDPTVAKEEQISFRDCAEVFKSGHTTNGIYTLTFPNSTEEIKAYCDMEAGGGGWTIIQRREDGSVDFQRTWKEYKVGFGNPSGEYWLGNEFVSQLTNQQRYVLKIHLKDWEGNEAYSLYEHFYLSSEELNYRIHLKGLTGTAGKISSISQPGNDFSTKDGDNDKCICKCSQMLTGGWWFDACGPSNLNGMYYPQRQNTNKFNGIKWYYWKGSGYSLKATTMMIRPADF",,percent inhibition of thrombin/TM complex formation at 1 uM Ang2 [1]: ~80%
"native human Ang1 (ligand, UniProt Q15389 16-498, looked up, Angiopoietin-1, human, 'native' as against the chimeric FD forms; also called Angiopoietin-1; source: bought: R&D Systems) HIGCSNQRRSPENSGRRYNRIQHGQCAYTFILPEHDGNCRESTTDQYNTNALQRDAPHVEPDFSSQKLQHLEHVMENYTQWLQKLENYIVENMKSEMAQIQQNAVQNHTATMLEIGTSLLSQTAEQTRKLTDVETQVLNQTSRLEIQLLENSLSTYKLEKQLLQQTNEILKIHEKNSLLEHKILEMEGKHKEELDTLKEEKENLQGLVTRQTYIIQELEKQLNRATTNNSVLQKQQLELMDTVHNLVNLCTKEGVLLKGGKREEEKPFRDCADVYQAGFNKSGIYTIYINNMPEPKKVFCNMDVNGGGWTVIQHREDGSLDFQRGWKEYKMGFGNPSGEYWLGNEFIFAITSQRQYMLRIELMDWEGNRAYSQYDRFHIGNEKQNYRLYLKGHTGTAGKQSSLILHGADFSTKDADNDNCMCKCALMLTGGWWFDACGPSNLNGMFYTAGQNHGKLNGIKWHYFKGPSYSLRSTTMMIRPLDF",,binding result [1]: binds
"Ang1-FD-Fc (Fc fusion, human, UniProt Q15389 277-498, looked up, Used at 1 ug/ml in the screen; also called fibrinogen-like domain (FD) of Ang1 fused to a human Fc tag) REEEKPFRDCADVYQAGFNKSGIYTIYINNMPEPKKVFCNMDVNGGGWTVIQHREDGSLDFQRGWKEYKMGFGNPSGEYWLGNEFIFAITSQRQYMLRIELMDWEGNRAYSQYDRFHIGNEKQNYRLYLKGHTGTAGKQSSLILHGADFSTKDADNDNCMCKCALMLTGGWWFDACGPSNLNGMFYTAGQNHGKLNGIKWHYFKGPSYSLRSTTMMIRPLDF",~88,
"Ang2-FD-Fc (Fc fusion, human, UniProt O15123-3 19-495, looked up, Angiopoietin-2 (Ang2, ANGPT2), fibrinogen-like domain (FD); Detected with anti-human Fc) KEEQISFRDCAEVFKSGHTTNGIYTLTFPNSTEEIKAYCDMEAGGGGWTIIQRREDGSVDFQRTWKEYKVGFGNPSGEYWLGNEFVSQLTNQQRYVLKIHLKDWEGNEAYSLYEHFYLSSEELNYRIHLKGLTGTAGKISSISQPGNDFSTKDGDNDKCICKCSQMLTGGWWFDACGPSNLNGMYYPQRQNTNKFNGIKWYYWKGSGYSLKATTMMIRPADF",~8.3,

# Reference: PMC5765006, “Angiopoietins bind thrombomodulin and inhibit its function as a thrombin cofactor” (Scientific Reports, 2018)
